Reference: the DeepSol protein solubility set

Assay: soluble on expression in E. coli; label from the status in PepcDB or PDB records

| Sequence | soluble on expression in E. coli |
| --- | --- |
| MSLEINKGEGAVLGKEFFCEEEPGYLIEEEEEKELLEFISSGNLEIDRRLEGGIPAGSLCLLEGANDSGKSIFLQQIIWGALNQDKTVLFLTTEKTSKEVLNQMESLKRGISDYFIIGRSKIFEINAGYVEENPRLSESLLQVLLECIQRCEEELVLIDSLTIFAVNASENAVLNFFTECVKLCDRGKTILISVHGYAFSQAVLYRLRSVCSACLELRIEQVGDQWVKTMEIQKLRGARKTTGNLLSFDVDSEFGLKIIPVSKIKAEGHHHHHH | soluble |
| MGSDKIHHHHHHMKLGFITSILDSWTYEEMMDFASGQGFECVEVACWPQEKAERRYAGVSHIDAERVNQDDAYAEHIVEYAKKSGVEISALAYYPNVMVADKEKSATAVEHLKQVILASKKLGVGMVTTFIGRDQTKNIQENLELVKEIWPPIIKLAEECDVKIAIENCPMLFGKEQWPGGQNLMTTPPIWREVFRILDSDHLGINYDPSHFIWQMIDYIRPLYEFKDKIFHVHYKDIKIYKDKLESCGIMAYPLEYMSPKIPGLGDVDWGKYVSALTDIGYDGYTCIEIEDKAFEDFKEKVENSLIISKRYLEQYVI | not soluble |
| MAHHHHHHMYSQRLSRVSPYLSNGSLSPRRFYEMLRRYATENLRDNFVQMQYREALLRLSRRDYWHWMGLRYGTLLFFPYGPRPEQTDNIPDWRHDEKIVQKWCAGLTGVPFADAAMRELLTTGFVAHEGRQALAWLLTRGYGQDWRLGAEWLERCSLDYDPFLCYGNFAYFSELILDDFGEPVRSVHWLAHHHDQTGIYVKKWLPLLSKIPPVYIHRPHVLTPRMQAMHGVRLGKTYPYPLKLWDGAQYMLGSDELTTYFDDSSAWHRKTKSGAGGPGHAEALRHGKAIMKVREWNAAILPEEVAQRPWAHHLPASAFESSEDEVETLQMRQRNQNQPTRHGQLSL | not soluble |
| MFFSNSLHANAAPQHFERIAKILQAKRRAGDFSTCDVKIQLKTGFDMVHSVVICAHSDVFSETFDNQRAPYQPFNMTDFDPDSVRRVFDWMYSGEIDIPETTIADVLAVASYLRVTMLQRQIEQKILNHNGSPIMALNIASARAFSVMDHTMNDLVHGFTEKMTGLGIDEVAKLTANSMIAVMAAVLPMKKKVPLVNMFISWIVCKQPERETINTIIQSLVISDITYDTLYAIRYSLKQYLTNSEIASKSQLTISPSGTIEIKIVPKKESMVSEKSSSLHSVVELPPNQYYRTRSEISAIDKMPDPFVRNLPRTQSASSMIARPRSSGGFPQYFTRSEVEDLQQMTDPFSKSERGMTPTRGPPMGFSSVQCTVKYPGWSKDVMETNKEMYKQCKMNGRYILSEAQTESNAPVFLRPAVGGKVSSSRGALSNLSNSEQNKKYGRGVTQSFSGHSLNDNDPMPKEHDPKVQPSVIISCLSLPTTSPVSVVKPKMTGVKKTDSEIMEINALPSSFNSNSFYTAKTSNTSGHSNDQSAGKSEKSQRSQKSEKSQKLKKPIPQSQYLYPN | not soluble |
| MSLAFDETRLPDDVERGAQGGPRFKTTVITLSSGFERRNSDWAQTRGEWDVGYGMQDATDLEDVIAFFYARNGRARGFRFKDWTDYVLSRQAIGTTDGSNATFQLFKRYTSGSTSFDRILSKIVTATTQVWVNNVEAPEGGASTSFAIDTTTGMITLGSSLAAQSGTTVEAACQFDVPVRFGSDALDITAEWADAVGAPNIPIVEIRVEGHHHHHH | soluble |
| MGSDKIHHHHHHMELVSVKRIWEQGEHNAFTDLVLYQGTLFCVFREGSAHVSPDGALRILRSHDAGETWQSVALLTSAHADLRDGKLIEFRGELLLLGGGTQHDKSGLQSYLWRSKDGVHWSEPQAVADKGYWLWRLTEHQDALYGVGYRAGPDGDTRLYKSDDSVEFTPWMPVFNNQGYVNESSLVFHQGSCFCLLRRDPVWSDEFLGLLGHSLSPFKQWTWQTLDKRIGGPVLFVYQSRLMAVVRLYEGDIRTALVEINQDTGQLHEWLTLPSQGDTSYAGIVLDGDDLLVSYYSSHEQAMVSDLERSDTQDDKAQDKFKTMIYFAKIKLGQN | not soluble |
| MSTEDALCFTGEEYARHVREYWRGVAESDGFDSEDIRSPVVLTGLFHYDCQSGRRYPDPLLVKRYALLGLHRFNILQGTSFELDALQKFNKTMNLTSSYYITLLANEPGAIPLQKTFQVRVDERKYDTLDLTVAIARLKKDQNEAAETTKEPFVPHFCCSAVSDGVFQGPLPDWPSDDALRHDRNRFYELEKSEWQATDWISLYLELLILATDRGMFGVAQTGLPQVQILKVVIETEEENEKPLDKRLNARRAHVYITFTGLPKSPRLVEIGEHVERKAIIRRVIDDSGYLTLLGKFWSGKDTEQRSKTRQSEEKVESSQKRSRLC | soluble |
| KRRIRQLELQVRMLEADKERLERELSRLRSEMSRLRQPPAFAGSVIEVLDDDRAIVQNYNGPRFVVRIAPWIDKSKLRPGTRVALDQRTMAIIEILPASKDPAVLGFEVVERPN | not soluble |
| MSLIVTAYTQEGIVIGADSCITTNFTQEGKELYKHSHCGNKLFLLNKKIGISTCGDAIINGILLSSLIDQYIWSKKEENITLLQVEIDLKNIVNNQAKGKEYYVIFHICGYENGKRYVSKFDNNDKESHIKDVSERDGCIYDGQVDIVDLFSQDVAYRGTDGLYYDINIERCRYNELSLQETIEYVYFLISTTIQHMRFTYKKDNVGFPIDILVIMPNESLWLQKKELHIPGNY | not soluble |
| MSGGIDSTATCLMLQEQGYEIVGVTMRVWGDEPQDARELAARMGIEHYVADERIPFKETIVKNFIDEYKQGRTPNPCVMCNPLFKFRVLAEWADKLDCAYIATGHYSRLEERSGHIYIVAGDDDKKDQSYFLWRLGQDILKRCIFPLGDYTKIKVREYLAEKGYEAKSKEGESMEVCFIQGDYRDFLREQCPELDTEIGPGWFVNSEGVKLGQHKGAPYYTIGQRKGLEIALGKPAYVLKINPQKNTVMLGDAEQLQTEYMLAEQDRIVDEQELFSCENLAVRIRYRSRPIPCRVKRLEDGRLLVRFRETASAVAPGQSAVFYDGRRVLGGAFIASQRGIGLVIIENKDKL | not soluble |
| MLSVGRGIADITGEAADCGMLGYGKSDQRTAGIHQRLRSRAFVFRDDSQDGDARLLLIVAELPLPMQNVNEEVLRRLADLYGDTYSEQNTLITATHTHAGPGGYCGYLLYNLTTSGFRPATFAAIVDGIVESVEHAHADVAPAEVSLSHGELYGASINRSPSAFDRNPPADKAFFPKRVDPHTTLVRIDRGEATVGVIHFFATHGTSMTNRNHLISGDNKGFAAYHWERTVGGADYLAGQPDFIAAFAQTNPGDMSPNVDGPLSPEAPPDREFDNTRRTGLCQFEDAFTQLSGATPIGAGIDARFTYVDLGSVLVRGEYTPDGEERRTGRPMFGAGAMAGTDEGPGFHGFRQGRNPFWDRLSRAMYRLARPTAAAQAPKGIVMPARLPNRIHPFVQEIVPVQLVRIGRLYLIGIPGEPTIVAGLRLRRMVASIVGADLADVLCVGYTNAYIHYVTTPEEYLEQRYEGGSTLFGRWELCALMQTVAELAEAMRDGRPVTLGRRPRPTRELSWVRGAPADAGSFGAVIAEPSATYRPGQAVEAVFVSALPNNDLRRGGTYLEVVRREGASWVRIADDGDWATSFRWQRQGRAGSHVSIRWDVPGDTTPGQYRIVHHGTARDRNGMLTAFSATTREFTVV | soluble |
| MTMPDYDLIAILGPTASGKTPFAAALAAELNTEIISADSRQIYRGMDLGTGKDLEDYTINGRQIPYHLIDIADPGYKYNVFEYQRDFLTAYETIKQKGCLPVLCGGTGLYLESVLKGYRLIPVPENQELRVRLAEKSLEELTAILSSYKTLHNSTDVDTVKRAIRAIEIEEYYAKTPIEEREFPQLNSLIIGVDIDRELRREKITRRLKQRLDDGMVEEVRRLLAEGIQPDDLIYYGLEYKYLTLYAIGKMTYDEMFTGLETAIHQFAKRQMTWFRGMERRGFTIHWVDASLPMEEKINFVKQKLKEFLEHHHHHH | not soluble |
| MAQSETVERILDAAEQLFAEKGFAETSLRLITSKAGVNLAAVNYHFGSKKALIQAVFSRFLGPFCASLEKELDRRQAKPEAQHATLEDLLHLLVSQAMAVKPRSGNDLSIFMRLLGLAFSQSQGHLRKYLEEVYGKVFRRYMLLVNEAAPKLPPIELFWRVHFMLGAAAFSMSGIKALRAMAETDFGVNTSTEQVMHLMVPFFAAGMRAESGIDDPLLAGAQLRPRNKTPAKA | soluble |
| MNPNFLDFEQPIADLQAKIEELRLVGNDNSLNIGDEISRLQDKSKTLTESIFGNLTSWQIARMARHPRRPYTLDYIENIFTEFDELHGDRHFSDDAAIVGGIARLDNQPVMIIGHQKGREVREKVRRNFGMPRPEGYRKACRLMEMAERFKMPILTFIDTPGAYPGIDAEERNQSEAIAWNLRVMARLKTPIIATVIGEGGSGGALAIGVCDQLNMLQYSTYAVISPEGCASILWKTAEKAPDAAEAMGITADRLKGLGIVDKVIAEPLGGAHRDPVAAAALIREELSSQLAMLKAFDNDALLARRYDRLMSYGL | not soluble |
| MSLKITKLEKKKRLYLMELDNGDKCYITEDTIVRFMLSRDKVISEEELKEIQDFAQFSYGKNLALYHLSFKARTEKEVREYLKKYDIDKNIVSQVIANLKEDKWINDGQYAYAIINTNQLSGDKGPYVLTQKLAQKGISKSTIEENLKEFDFSEVAQRVANKLLKKYEGKLPARALQDKIIQNLTNKGFSYSDAKIAFDDLDSQVDQETTQELIFKELDKQYTKYARKYEGYELKQRLTQVLARKGYDFSDIASALREYLEGHHHHHH | soluble |
| MRICSDQPCIVLLTEKDVWIRVNGKEPISLKANHMALLNCENNIIDVSSLNNTLVAHISHDIIKDYLRFLNKDLSQIPVWQRSATPILTLPCLTPDVFRVAAQHSMMPAETESEKERTRALLFTVLSRFLDSKKFVSLMMYMLRNCVSDSVYQIIESDIHKDWNLSMVASCLCLSPSLLKKKLKSENTSYSQIITTCRMRYAVNELMMDGKNISQVSQSCGYNSTSYFISVFKDFYGMTPLHYVSQHRERTVA | soluble |
| TMLSFVTTDANIDHGHLQGALSAITNETFNRITVDGDTSTNDMVVVMASGLAENETLTPEHPDWANFYKALQLACEDLAKQIARDGEGATKLIEVEVTGAANDQEAGMVAKQIVGSDLVKTAIYGADANWGRIICAIGYSGCEVNQETIDIAIGPIVTLKQSEPTGFSEEEATAYLKEADPVKISVNLHIGNGTGKAWGCDLTYDYVRINAGYRT | soluble |
| MSLKKQPGFTQDYLLSKATTLPDKTRLERAVEPLCARHPGECGILALDNSLDAFAARYRLTEMAARTLDVQYYIWEDDMSGRLLFSVLLSAAKRGVHVRLLLDDNNTPGLDDTLRLLDSHPNIEVRLFNPFSFRTLRALGYLTDFARLNRRMHNKSYTADGVVTLVGGRNIGDAYFGAGEEPLFSDLDVMAIGPVVNDVANDFERYWRCSSVSTLQQVLSLSEQELTQRIELPESWYNDEITRRYLHKLETSQFMADLDCGTLPLIWAKTRLLSDDPSKGEGKAQRHSLLPQRLFDVMGSPTERIDIISAYFVPTRAGVAQLLNLVRKGVKIAILTNSLAANDVAVVHAGYARWRKKLLRYGVELYELKPTREHETAVHDRGLTGNSGSSLHAKTFSIDGSKVFIGSLNFDPRSTLLNTEMGFVIESETLATLIHKRFTQSQRDAAWQLRLDRWGRINWIDRQQEEEKVLKKEPATRFWQRVLVRLAAILPVEWLLEGHHHHHH | soluble |
